Experimental data from patent US20220387417A1, “Pharmaceutical Combination and Use Thereof” (CSTONE PHARMACEUTICALS (SUZHOU) CO., LTD., priority 2019, published 2022).

What was measured:
[1] = Body weight of B-hPD-1 humanized mice bearing MC38-hPD-L1 tumors, Embodiment 2 (antibody 2E5 / Lenvatinib mesylate); type: in vivo, Mus musculus; settings: for Weight (g)/Mean ± SEM Day 17: 17th day after the start of treatment; for Weight (g) Changes: Day 17 vs Day 0
Description: (§1) MC38-hPD-L1 tumor cells were resuspended in 1×PBS to a concentration of 5×10^5 cells per 0.1 mL. Each of the B-hPD-1 humanized mice was subcutaneously inoculated at the right lateral thorax region with 0.1 mL of the cell suspension. When the average tumor volume reached about 77 mm^3, the mice with moderate tumor volume were selected and randomly divided into 6 groups according to tumor volume, with 10 mice in each group, and the treatment was initiated on the same day.
Animals were weighed 2-3 times a week before tumor inoculation, during animal grouping and the treatment, and before the euthanasia.
(§2) The original data measured and observed must be recorded. The original data was analyzed and the results were expressed by mean and standard error (Mean±SEM). The data of body weight, tumor volume and tumor weight was statistically analyzed using independent-samples t-test. All data were analyzed using SPSS, P<0.05 is considered to be statistically significant.

[2] = test system: subcutaneous MC38-hPD-L1 transplanted tumor; assay: Antibody 2E5 monotherapy or in combination with Lenvatinib mesylate on B-hPD-1 humanized mouse MC38-hPD-L1 colon cancer model: tumor volume, tumor weight, TGI, synergy score; type: in vivo; settings: for Tumor volume (mm^3)/Mean ± SEM Day 17: 17th day after the start of treatment
Description: Synergy score was calculated using the following formula described in Clarke R. Issues in experimental design and endpoint analysis in the study of experimental cytotoxic agents in vivo in breast cancer and other models[J]. Breast Cancer Research & Treatment, 1997, 46(2-3):255-278, which is incorporated by reference in its entirety:
Synergy score=((A/C)×(B/C))/(AB/C);
where A is RTV value of drug A; B is RTV value of drug B; C is RTV value of vehicle control; AB is RTV value of combination treatment with A and B respectively. • Synergy score>1 represents synergistic; • Synergy score=1 represents additive; • Synergy score<1 represents antagonistic.
where V0 and Vt are the average tumor volume at the start of treatment (day 0) and the average tumor volume on a certain time point (day t).
Mouse colon cancer cells MC38 were purchased from Shun Ran (Shanghai) Biotechnology Co., Ltd., and the cells were cultured in a 37° C., 5% CO2 incubator supplemented with Dulbecco's Modified Eagle's medium containing 10% inactivated fetal bovine serum. MC38 cells were genetically modified to overexpress human PD-L1 and knock out murine PD-L1, the modified cells were named as MC38-hPD-L1 cells.
as §1
Tumor volume was measured 2-3 times a week in two dimensions using a caliper, and the volume was expressed in mm^3 using the formula: V=0.5 a×b^2 where a and b were the long and short diameters of the tumor, respectively.
At the termination of the experiment, the animals were photographed to record the tumor bearing state after euthanasia, and the tumors of the mice were weighed and photographed.
TGITV(%)=[1−(Ti−T0)/(Vi−V0)]×100%.
Ti: tumor volume of the treatment group at day i following treatment; T0: tumor volume of the treatment group at day 0 following treatment; Vi: tumor volume of the control group at day i following treatment; V0: tumor volume of the control group at day 0 following treatment.
At the termination of the experiment, the animals were euthanized, the tumors were separated and weighed, and the difference of tumor weight between each group was calculated. Tumor weight inhibition (TGITW) was calculated by the formula:
TGITW (%)=(WC−WT)/[…]×100%; where We means tumor weight of control group, WT means tumor weight of treatment group.
as §2

[3] = Antibody 2E5 1 mg/kg i.p., Lenvatinib mesylate 1 mg/kg p.o. QD (G2, G4, G5)
[4] = Antibody 2E5 2 mg/kg i.p., Lenvatinib mesylate 1 mg/kg p.o. QD (G3, G6)
[5] = Antibody 2E5 1 mg/kg, Lenvatinib mesylate 1 mg/kg (G2, G4, G5)
[6] = Antibody 2E5 2 mg/kg, Lenvatinib mesylate 1 mg/kg (G3, G6)

B1: Antibody 2E5: anti-PD-1 antibody (antibody N), heavy chain variable SEQ ID NO: 30, light chain variable SEQ ID NO: 31, human IgG4 constant region (antibody, V domains shown)
VH: QVQLVQSGAEVKKPGSSVKVSCKASGFTFTTYYISWVRQAPGQGLEYLGYINMGSGGTNYNEKFKGRVTITADKSTSTAYMELSSLRSEDTAVYYCAIIGYFDYWGQGTMVTVSS
VL: DVVMTQSPLSLPVTLGQPASISCRSSQSLLDSDGGTYLYWFQQRPGQSPRRLIYLVSTLGSGVPDRFSGSGSGTDFTLKISRVEAEDVGVYYCMQLTHWPYTFGQGTKLEIK
modifications: human IgG4 constant region; heavy chain variable region; light chain variable region
- Weight (g)/Mean ± SEM Day 17 [1, 3]: 28.6 ± 0.7 g
- Weight (g)/Mean ± SEM Day 17 [1, 4]: 27.8 ± 0.7 g
- Weight (g)/Mean ± SEM Day 0 [1, 3]: 24.9 ± 0.7 g
- Weight (g)/Mean ± SEM Day 0 [1, 4]: 25.0 ± 0.6 g
- Weight (g) Changes [1, 5]: +3.7 g
- Weight (g) Changes [1, 6]: +2.8 g
- Tumor volume (mm^3)/Mean ± SEM Day 17 [2, 3]: 1195 ± 252 mm^3
- Tumor volume (mm^3)/Mean ± SEM Day 17 [2, 4]: 1302 ± 202 mm^3
- Tumor volume (mm^3)/Mean ± SEM Day 0 [2, 5]: 77 ± 2 mm^3
- Tumor volume (mm^3)/Mean ± SEM Day 0 [2, 6]: 77 ± 2 mm^3
- Tumor weight (g) Mean ± SEM ([2]; Day 17, Antibody 2E5 1 mg/kg, Lenvatinib mesylate 1 mg/kg (G2, G4, G5)): 0.909 ± 0.186 g
- Tumor weight (g) Mean ± SEM ([2]; Day 17, Antibody 2E5 2 mg/kg, Lenvatinib mesylate 1 mg/kg (G3, G6)): 1.080 ± 0.190 g
- Tumor growth inhibition (%) ([2]; by tumor volume, Day 17, vs hIgG4 control, Antibody 2E5 1 mg/kg, Lenvatinib mesylate 1 mg/kg (G2, G4, G5)): 56.4%
- Tumor growth inhibition (%) ([2]; by tumor volume, Day 17, vs hIgG4 control, Antibody 2E5 2 mg/kg, Lenvatinib mesylate 1 mg/kg (G3, G6)): 52.2%
- Tumor growth inhibition (%) ([2]; tumor weight analysis (Table 21), Day 17, vs IgG4 control, Antibody 2E5 1 mg/kg, Lenvatinib mesylate 1 mg/kg (G2, G4, G5)): 56.4%
- Tumor growth inhibition (%) ([2]; tumor weight analysis (Table 21), Day 17, vs IgG4 control, Antibody 2E5 2 mg/kg, Lenvatinib mesylate 1 mg/kg (G3, G6)): 48.2%
